Reference: the supplement of paper PMC7877785
± gives the uncertainty stated by the source.

Assay: self-splicing fitness, log relative to wild type (ln ratio); higher = more splicing; Tetrahymena group I intron in knt gene, E. coli kanamycin selection, DiMSum; sequences stand for … in CUCUCU…GGAGGGAAAAGUUAUCAGGCAUGCACCUGGUAGCUAGUCUUUAAACCAAUAGAUUGCAUCGGUUUAAAAGGCAAGACCGUCAAAUUGCGGGAAAGGGGUCAACAGCCGUUCAGUACCAAGUCUCAGGGGAAACUUUGAGAUGGCCUUGCAAAGGGUAUGGUAAUAAGCUGACGGACAUGGUCCUAACCACGCAGCCAAGUCCUAAGUCAACAGAUCUUCUGUUGAUAUGGAUGCAGUUCACAGACUAAAUGUCGGUCGGGGAAGAUGUAUUCUUCUCAUAAGAUAUAGUCGGACCUCUCCUUAAUGGGAGCUAGCGGAUGAAGUGAUGCAACACUGGAGCCGCUGGGAACUAAUUUGUAUGCGAAAGUAUAUUGAUUAGUUUUGGAGUACUCGUGGUCG
In short: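 Pooled colonies went to amplicon sequencing on an Illumina HiSeq 2500 after six replicate transformations. The plates were LB agar with 100 μg/mL carbenicillin, 50 μM IPTG and 0.2% rhamnose, with or without 25 μg/mL kanamycin, incubated overnight at 37°C or 30°C. The E. coli BL21(DE3) library had all eight P1ex-region intron nucleotides randomised, the intron placed in the knt kanamycin-resistance gene on pET-22b(+). DiMSum fitness is the error-weighted combination of replicate fold changes, kanamycin against none, normalised to wild type.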

Sequence | self-splicing fitness (ln) (30 °C) | self-splicing fitness (ln) (37 °C)
CCGUAGCAAUAUUACGGGCA | -3.76 ± 0.42 | -2.14 ± 0.23
UUGUAGCAAUAUUACGGCCG | -0.356 ± 0.17 | -0.462 ± 0.22
GGCUAGCAAUAUUACGAGGG | -2.39 ± 0.21 | -2.27 ± 0.42
AUUGAGCAAUAUUACGUUAG | -3 ± 0.14 | -2.73 ± 0.19
CGAGAGCAAUAUUACGACCG | -3.71 ± 0.43 | -1.84 ± 0.33
GAGAAGCAAUAUUACGGGGA | -2.34 ± 0.22 | -2.67 ± 0.28
CAAAAGCAAUAUUACGCACC | -2.48 ± 0.31 | -0.0893 ± 0.26
CCUUAGCAAUAUUACGAUAG | -2.77 ± 0.12 | -2.37 ± 0.18
ACCAAGCAAUAUUACGUGGA | -2.92 ± 0.14 | -1.49 ± 0.11
GGAUAGCAAUAUUACGCUCA | 0.156 ± 0.15 | -0.278 ± 0.15
GUCAAGCAAUAUUACGUGCC | -4.07 ± 0.2 | -2.73 ± 0.19
UAGAAGCAAUAUUACGCAUG | -1.12 ± 0.1 | 0.583 ± 0.12
ACCUAGCAAUAUUACGGCAA | -1.41 ± 0.17 | 0.02 ± 0.14
GCGAAGCAAUAUUACGACGG | -1.27 ± 0.21 | -0.313 ± 0.33
CUCUAGCAAUAUUACGCUAC | -3.65 ± 0.47 | -1.14 ± 0.37
CAUUAGCAAUAUUACGGAAG | -0.396 ± 0.1 | -0.104 ± 0.12
UAACAGCAAUAUUACGAUAG | -1.21 ± 0.11 | -0.506 ± 0.12
GCUAAGCAAUAUUACGACCA | -2.09 ± 0.21 | -1.34 ± 0.26
AGUUAGCAAUAUUACGCAAA |  | -1.57 ± 0.29
CCUAAGCAAUAUUACGGCGA | -2.84 ± 0.31 | -1.95 ± 0.27
UUGAAGCAAUAUUACGGGGC | -3.3 ± 0.2 | -2.74 ± 0.3
CCGGAGCAAUAUUACGAUGC | -2.69 ± 0.41 | 
UAGUAGCAAUAUUACGACAU | -2.049 ± 0.018 | -0.934 ± 0.034
UAACAGCAAUAUUACGCCAA | -3.04 ± 0.19 | -1.38 ± 0.14

Sequence | self-splicing fitness (ln) (30 °C) | self-splicing fitness (ln) (37 °C)
CCACAGCAAUAUUACGGUUC | -3.39 ± 0.18 | -2.27 ± 0.19
GGGUAGCAAUAUUACGGAAU | -0.368 ± 0.12 | -0.661 ± 0.19
GCUCAGCAAUAUUACGCCCA | -1.99 ± 0.25 | -1.09 ± 0.23
GUGGAGCAAUAUUACGUGCG | -2.23 ± 0.15 | -2.9 ± 0.29
CGCUAGCAAUAUUACGAGAU | -3.86 ± 0.19 | -3.36 ± 0.23
GAUUAGCAAUAUUACGACCA | -0.409 ± 0.23 | -0.295 ± 0.34
CGGCAGCAAUAUUACGUAAU | -3.38 ± 0.18 | -1.69 ± 0.22
AUCCAGCAAUAUUACGGGUG | -1.18 ± 0.049 | -0.904 ± 0.061
UUAGAGCAAUAUUACGUCGC | -3.05 ± 0.47 | -1.76 ± 0.37
UUACAGCAAUAUUACGCCAU | -2.91 ± 0.25 | -2.48 ± 0.27
UUCCAGCAAUAUUACGUAAC | -2.44 ± 0.25 | -2.08 ± 0.38
CCACAGCAAUAUUACGCCCG | -0.882 ± 0.078 | -0.0155 ± 0.09
CGUCAGCAAUAUUACGUGGA | -3.65 ± 0.24 | -0.946 ± 0.17
AAACAGCAAUAUUACGCCCC | -1.63 ± 0.15 | -0.801 ± 0.19
UUACAGCAAUAUUACGUCGA | -0.899 ± 0.087 | 0.0863 ± 0.093
ACCCAGCAAUAUUACGACCC | -1.06 ± 0.13 | 0.555 ± 0.18
CGUAAGCAAUAUUACGUAUC | -3.12 ± 0.24 | -3.6 ± 0.24
CUAUAGCAAUAUUACGAGUG | -0.752 ± 0.071 | 0.361 ± 0.1
GCGCAGCAAUAUUACGAUUG | -2.57 ± 0.073 | -1.28 ± 0.1
GAGCAGCAAUAUUACGCACG | -1.11 ± 0.061 | -0.692 ± 0.083
UAUUAGCAAUAUUACGACAU | -1.63 ± 0.017 | -0.705 ± 0.035
UCACAGCAAUAUUACGUUGU | -4.29 ± 0.18 | -2.14 ± 0.12
UCCCAGCAAUAUUACGGUCU | -1.83 ± 0.11 | -0.794 ± 0.11
UUCCAGCAAUAUUACGUUGU | -2.93 ± 0.21 | -2.74 ± 0.27
